B1: YPEL3 (parent)
chain: SKPKTFQAYLDDCHRRYSCAHCRA
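Note: lentivirally expressed fusions sorted by FACS into six bins by GFP to DsRed ratio, PSI derived from sequencing read proportions per bin multiplied by bin number.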

In the series the parent is B1. Put plainly: protein stability index of a GFP-peptide fusion (GPS, HEK-293T) (PSI 1-6); higher = more stable. The note with it: c terminus: a fixed tail appended.
Regarding SKPKTFQAYLDDCHRRYFCAHCRA [S18F], the protein stability index was determined as 1.91. With SKPKTFQAYLDDCHRRYGCAHCRA [S18G], the protein stability index was 2.5. For SKPKTFQAYLDDCHRRYICAHCRA [S18I], the protein stability index turned out to be 2.37. For the variant SKPKTFQAYLDDCHRRYKCAHCRA [S18K], the protein stability index was found to be 2.01.

In the case of SKPKTFQAYLDECHRRYSCAHCRA [D12E], the protein stability index was 2.36.

Consider SKPKTFQAYLDFCHRRYSCAHCRA [D12F], for which the protein stability index came out at 1.7. For the variant SKPKTFQAYLDCCHRRYSCAHCRA [D12C], the protein stability index stood at 2.74. SKPKTFQAYLDTCHRRYSCAHCRA [D12T]: the protein stability index worked out at 2.35. On to SKPKTFQAYLDPCHRRYSCAHCRA [D12P], for which the protein stability index stood at 2.57. For the variant SKPKTFQAYLDVCHRRYSCAHCRA [D12V], the protein stability index turned out to be 1.96. For the variant SKPKTFQAYLDICHRRYSCAHCRA [D12I], the protein stability index came out at 2.22.

In the case of SKPKTFQAYLDSCHRRYSCAHCRA [D12S], the protein stability index was 2. As to SKPKTFQAYLDWCHRRYSCAHCRA [D12W], the protein stability index came out at 1.67. As for SKPKTFQAYLDKCHRRYSCAHCRA [D12K], the protein stability index came to 2.9.

With SKPKTFQAYLDACHRRYSCAHCRA [D12A], the protein stability index amounted to 2.19. For the variant SKPKTFQAYLDRCHRRYSCAHCRA [D12R], the protein stability index worked out at 2.4. In the case of SKPKTFQAYLDGCHRRYSCAHCRA [D12G], the protein stability index was found to be 2.64. The value for SKPKTFQAYLDYCHRRYSCAHCRA [D12Y] was 2.28; that for SKPKTFQAYLDMCHRRYSCAHCRA [D12M] was 2.69; that for SKPKTFQAYLDLCHRRYSCAHCRA [D12L] was 2.34.

SKPKTFQAYLDHCHRRYSCAHCRA [D12H]: the protein stability index came to 2.35. Turning to SKPKTFQAYLDQCHRRYSCAHCRA [D12Q], the protein stability index stood at 2.01. In the case of SKPKTFQAYLDNCHRRYSCAHCRA [D12N] it was 2.12; in that of SKPKTFQAYLDDCRRRYSCAHCRA [H14R], 1.73. For SKPKTFQAYLDDCARRYSCAHCRA [H14A], the protein stability index worked out at 2.03. Turning to SKPKTFQAYLDDCMRRYSCAHCRA [H14M], the protein stability index worked out at 2.34. The value for SKPKTFQAYLDDCKRRYSCAHCRA [H14K] was 2.78. With SKPKTFQAYLDDCFRRYSCAHCRA [H14F], the protein stability index is 1.07. Turning to SKPKTFQAYLDDCWRRYSCAHCRA [H14W], the protein stability index came to 3.12.

Consider SKPKTFQAYLDDCQRRYSCAHCRA [H14Q], for which the protein stability index was 2.23. As for SKPKTFQAYLDDCIRRYSCAHCRA [H14I], the protein stability index was found to be 2.05. As for SKPKTFQAYLDDCPRRYSCAHCRA [H14P], the protein stability index is 2.05. Regarding SKPKTFQAYLDDCSRRYSCAHCRA [H14S], the protein stability index is 2.06. For SKPKTFQAYLDDCERRYSCAHCRA [H14E], the protein stability index was 1.56. The value for SKPKTFQAYLDDCCRRYSCAHCRA [H14C] was 2.28; that for SKPKTFQAYLDDCVRRYSCAHCRA [H14V] was 2.15. For SKPKTFQAYLDDCDRRYSCAHCRA [H14D], the protein stability index was determined as 1.67. For SKPKTFQAYLDDCGRRYSCAHCRA [H14G], the protein stability index is 3.08. Regarding SKPKTFQAYLDDCTRRYSCAHCRA [H14T], the protein stability index was 1.8. In the case of SKPKTFQAYLDDCLRRYSCAHCRA [H14L] it was 1.82; in that of SKPKTFQAYLDDCNRRYSCAHCRA [H14N], 2.19; in that of SKPKTFQAYLDDCYRRYSCAHCRA [H14Y], 1.56. SKPKTFQAYLDDCHMRYSCAHCRA [R15M]: the protein stability index was 1.68. The value for SKPKTFQAYLDDCHLRYSCAHCRA [R15L] was 2.01; that for SKPKTFQAYLDDCHCRYSCAHCRA [R15C] was 2.72; that for SKPKTFQAYLDDCHERYSCAHCRA [R15E] was 3.59. With SKPKTFQAYLDDCHTRYSCAHCRA [R15T], the protein stability index was 2.48. SKPKTFQAYLDDCHVRYSCAHCRA [R15V]: the protein stability index is 1.57. In the case of SKPKTFQAYLDDCHQRYSCAHCRA [R15Q] it was 1.65; in that of SKPKTFQAYLDDCHNRYSCAHCRA [R15N], 2.79; in that of SKPKTFQAYLDDCHKRYSCAHCRA [R15K], 2.15. Turning to SKPKTFQAYLDDCHGRYSCAHCRA [R15G], the protein stability index was 1.88.

For SKPKTFQAYLDDCHPRYSCAHCRA [R15P], the protein stability index was 1.82. As for SKPKTFQAYLDDCHHRYSCAHCRA [R15H], the protein stability index was 2.72. In the case of SKPKTFQAYLDDCHIRYSCAHCRA [R15I], the protein stability index was found to be 2.25. On to SKPKTFQAYLDDCHWRYSCAHCRA [R15W], for which the protein stability index came to 2.2. On to SKPKTFQAYLDDCHARYSCAHCRA [R15A], for which the protein stability index was found to be 2.1. As for SKPKTFQAYLDDCHSRYSCAHCRA [R15S], the protein stability index came to 1.61.

For the variant SKPKTFQAYLDDCHDRYSCAHCRA [R15D], the protein stability index turned out to be 2.67. In the case of SKPKTFQAYLDDCHFRYSCAHCRA [R15F] it was 2.07; in that of SKPKTFQAYLDDCHYRYSCAHCRA [R15Y], 1.56. The value for SKPKTFQMYLDDCHRRYSCAHCRA [A8M] was 1.66. Turning to SKPKTFQLYLDDCHRRYSCAHCRA [A8L], the protein stability index was determined as 2.4. In the case of SKPKTFQNYLDDCHRRYSCAHCRA [A8N] it was 2.49. On to SKPKTFQKYLDDCHRRYSCAHCRA [A8K], for which the protein stability index is 2.31. The value for SKPKTFQWYLDDCHRRYSCAHCRA [A8W] was 2.09; that for SKPKTFQIYLDDCHRRYSCAHCRA [A8I] was 1.81; that for SKPKTFQVYLDDCHRRYSCAHCRA [A8V] was 2.23. With SKPKTFQYYLDDCHRRYSCAHCRA [A8Y], the protein stability index stood at 2.02.

Take SKPKTFQPYLDDCHRRYSCAHCRA [A8P]: the protein stability index is 2.62. The value for SKPKTFQRYLDDCHRRYSCAHCRA [A8R] was 1.88; that for SKPKTFQSYLDDCHRRYSCAHCRA [A8S] was 1.82; that for SKPKTFQHYLDDCHRRYSCAHCRA [A8H] was 2.51.

As to SKPKTFQTYLDDCHRRYSCAHCRA [A8T], the protein stability index is 2.1. In the case of SKPKTFQQYLDDCHRRYSCAHCRA [A8Q] it was 2.5; in that of SKPKTFQACLDDCHRRYSCAHCRA [Y9C], 2.33; in that of SKPKTFQAILDDCHRRYSCAHCRA [Y9I], 2.

Turning to SKPKTFQAVLDDCHRRYSCAHCRA [Y9V], the protein stability index was 2.41. SKPKTFQAHLDDCHRRYSCAHCRA [Y9H]: the protein stability index is 1.88. In the case of SKPKTFQARLDDCHRRYSCAHCRA [Y9R] it was 1.94; in that of SKPKTFQADLDDCHRRYSCAHCRA [Y9D], 2.38; in that of SKPKTFQAGLDDCHRRYSCAHCRA [Y9G], 2.85. Take SKPKTFQAFLDDCHRRYSCAHCRA [Y9F]: the protein stability index amounted to 2.67.

Take SKPKTFQAMLDDCHRRYSCAHCRA [Y9M]: the protein stability index amounted to 1.89. In the case of SKPKTFQALLDDCHRRYSCAHCRA [Y9L] it was 1.96; in that of SKPKTFQANLDDCHRRYSCAHCRA [Y9N], 2.17. On to SKPKTFQAELDDCHRRYSCAHCRA [Y9E], for which the protein stability index amounted to 3. SKPKTFQAKLDDCHRRYSCAHCRA [Y9K]: the protein stability index amounted to 1.93.

For SKPKTFQAQLDDCHRRYSCAHCRA [Y9Q], the protein stability index worked out at 2.45. As for SKPKTFQAALDDCHRRYSCAHCRA [Y9A], the protein stability index worked out at 2.19.

As to SKPKTFQAWLDDCHRRYSCAHCRA [Y9W], the protein stability index was 1.93. As to SKPKTFQASLDDCHRRYSCAHCRA [Y9S], the protein stability index was 1.4. As to SKPKTFQATLDDCHRRYSCAHCRA [Y9T], the protein stability index turned out to be 1.52.

For SKPKTFQAPLDDCHRRYSCAHCRA [Y9P], the protein stability index was found to be 3.08.
